Source: the Immune Epitope Database (IEDB)
pIC50, pKd: −log10 of the molar value.

Legend:
HLA-A*11:01 = test: IEDB peptide-MHC binding, purified MHC/direct/fluorescence; filed as Kd, often an IC50 or EC50 that approximates it; ≥ and ≤ were set here for values at or beyond the usual limits of such assays
HLA-A*03:01 [1] = test: as above
HLA-C*14:02 = test: as above
HLA-B*35:01 [2] = test: IEDB peptide-MHC binding, purified MHC/competitive/fluorescence; filed as Kd, often an IC50 or EC50 that approximates it; ≥ and ≤ were set here for values at or beyond the usual limits of such assays; conditions: source organism: Francisella tularensis subsp. tularensis FSC198
HLA-B*07:02 [3] = test: IEDB peptide-MHC binding, purified MHC/direct/fluorescence; filed as Kd, often an IC50 or EC50 that approximates it; ≥ and ≤ were set here for values at or beyond the usual limits of such assays
HLA-A*26:01 [4] = test: as above
HLA-B*58:01 = test: as above
HLA-A*02:01 [5] = test: as above
HLA-B*44:02 = test: as above
HLA-A*69:01 [6] = test: as above
HLA-A*01:01 [7] = test: as above
HLA-A*24:03 [8] = test: as above
HLA-B*08:01 = test: as above
HLA-B*27:05 = test: as above
HLA-B*40:01 = test: as above
HLA-A*29:02 = test: IEDB peptide-MHC binding, purified MHC/competitive/fluorescence; filed as Kd, often an IC50 or EC50 that approximates it; ≥ and ≤ were set here for values at or beyond the usual limits of such assays; conditions: source organism: Streptococcus pneumoniae TIGR4
HLA-A*26:01 [9] = test: as above; conditions: source organism: Streptococcus pneumoniae TIGR4
HLA-A*03:01 [10] = test: as above; conditions: source organism: Streptococcus pneumoniae TIGR4
HLA-B*27:03 = test: as above; conditions: source organism: Streptococcus pneumoniae TIGR4
HLA-B*18:01 = test: as above; conditions: source organism: Streptococcus pneumoniae TIGR4
HLA-A*02:01 [11] = test: as above; conditions: source organism: Streptococcus pneumoniae TIGR4
HLA-B*46:01 = test: as above
HLA-B*51:01 = test: as above; conditions: source organism: Streptococcus pneumoniae TIGR4
HLA-A*69:01 [12] = test: as above; conditions: source organism: Streptococcus pneumoniae TIGR4
HLA-B*57:01 = test: as above; conditions: source organism: Streptococcus pneumoniae TIGR4
HLA-B*39:01 = test: as above
HLA-A*23:01 = test: as above; conditions: source organism: Streptococcus pneumoniae TIGR4
HLA-B*15:17 = test: as above; conditions: source organism: Streptococcus pneumoniae TIGR4
HLA-B*15:01 [13] = test: as above
HLA-A*24:03 [14] = test: as above; conditions: source organism: Streptococcus pneumoniae TIGR4
HLA-A*30:01 [15] = test: as above; conditions: source organism: Human immunodeficiency virus 1
HLA-A*02:03 = test: as above; conditions: source organism: Human immunodeficiency virus 1
HLA-A*02:06 = test: as above; conditions: source organism: Human immunodeficiency virus 1
HLA-A*24:02 = test: IEDB peptide-MHC binding, purified MHC/direct/fluorescence; filed as Kd, often an IC50 or EC50 that approximates it; ≥ and ≤ were set here for values at or beyond the usual limits of such assays; conditions: source organism: Influenza A virus (A/tiger/Thailand/CU-T4/04(H5N1))
HLA-B*35:01 [16] = test: as above
HLA-B*15:01 [17] = test: as above
HLA-B*08:02 = test: as above; conditions: source organism: Influenza A virus(A/swine/Shandong/fZC/2003(H9N2))
HLA-A*01:01 [18] = test: IEDB peptide-MHC binding, purified MHC/competitive/fluorescence; filed as Kd, often an IC50 or EC50 that approximates it; ≥ and ≤ were set here for values at or beyond the usual limits of such assays
HLA-A*31:01 = test: IEDB peptide-MHC binding, purified MHC/direct/fluorescence; filed as Kd, often an IC50 or EC50 that approximates it; ≥ and ≤ were set here for values at or beyond the usual limits of such assays
HLA-B*07:02 [19] = test: IEDB peptide-MHC binding, purified MHC/competitive/fluorescence; ≥ and ≤ were set here for values at or beyond the usual limits of such assays; conditions: source organism: Zaire ebolavirus
HLA-A*30:01 [20] = test: IEDB peptide-MHC binding, purified MHC/direct/fluorescence; filed as Kd, often an IC50 or EC50 that approximates it; ≥ and ≤ were set here for values at or beyond the usual limits of such assays; conditions: source organism: Yersinia enterocolitica
[21] = source organism: Francisella tularensis subsp. holarctica LVS
[22] = source organism: Vibrio parahaemolyticus
[23] = source organism: Vibrio cholerae
[24] = source organism: Streptococcus pneumoniae TIGR4
[25] = source organism: Human immunodeficiency virus 1
[26] = source organism: Influenza A virus (A/tiger/Thailand/CU-T4/04(H5N1))
[27] = source organism: Influenza A virus (A/Puerto Rico/8/34/Mount Sinai(H1N1))
[28] = source organism: Haemophilus influenzae
[29] = source organism: Escherichia coli
[30] = source organism: Yersinia enterocolitica

Sequence: AIYKNTIAY
- pKd (HLA-A*11:01; [21]): 7.62
- pKd (HLA-A*03:01 [1]; [21]): 8.16
- pKd (HLA-C*14:02; source organism: Francisella tularensis subsp. tularensis FSC198): 6.93
- pKd (HLA-B*35:01 [2]): 7.01

Sequence: AYYWNQNGF
- pKd (HLA-A*11:01; [22]): ≤ 4.70
- pKd (HLA-B*07:02 [3]; [23]): ≤ 4.70
- pKd (HLA-A*26:01 [4]; [23]): ≤ 4.70
- pKd (HLA-A*03:01 [1]; [23]): ≤ 4.70
- pKd (HLA-B*58:01; [23]): ≤ 4.70
- pKd (HLA-C*14:02; source organism: Vibrio cholerae 2740-80): ≥ 9.00
- pKd (HLA-A*02:01 [5]; [23]): ≤ 4.70
- pKd (HLA-B*44:02; [23]): ≤ 4.70
- pKd (HLA-A*69:01 [6]; [23]): ≤ 4.70
- pKd (HLA-A*01:01 [7]; [23]): ≤ 4.70
- pKd (HLA-A*24:03 [8]; [22]): 8.65
- pKd (HLA-B*08:01; [23]): ≤ 4.70
- pKd (HLA-B*27:05; [23]): ≤ 4.70
- pKd (HLA-B*40:01; [23]): ≤ 4.70

Sequence: CLSDEINHV
- pKd (HLA-A*29:02): ≤ 4.70
- pKd (HLA-A*26:01 [9]): ≤ 4.70
- pKd (HLA-A*03:01 [10]): ≤ 4.70
- pKd (HLA-B*27:03): ≤ 4.70
- pKd (HLA-B*18:01): ≤ 4.70
- pKd (HLA-A*02:01 [11]): 7.96
- pKd (HLA-B*46:01; [24]): ≤ 4.70
- pKd (HLA-B*51:01): ≤ 4.70
- pKd (HLA-A*69:01 [12]): ≤ 4.70
- pKd (HLA-B*57:01): ≤ 4.70
- pKd (HLA-B*39:01; [24]): ≤ 4.70
- pKd (HLA-A*23:01): ≤ 4.70
- pKd (HLA-B*15:17): ≤ 4.70
- pKd (HLA-B*15:01 [13]; [24]): ≤ 4.70
- pKd (HLA-A*24:03 [14]): ≤ 4.70

Sequence: EKLKSLFNTV
- pKd (HLA-A*30:01 [15]): 5.94
- pKd (HLA-A*02:03): ≤ 4.70
- pKd (HLA-B*39:01; [25]): ≤ 4.70
- pKd (HLA-A*02:06): 6.46
- pKd (HLA-B*15:01 [13]; [25]): ≤ 4.70

Sequence: FVRTLFQQM
- pKd (HLA-A*11:01; [26]): ≤ 4.70
- pKd (HLA-B*07:02 [3]; [27]): 6.30
- pKd (HLA-A*24:02): ≤ 4.70
- pKd (HLA-A*03:01 [1]; [26]): ≤ 4.70
- pKd (HLA-B*58:01; [26]): ≤ 4.70
- pKd (HLA-A*02:01 [5]; [26]): ≤ 4.70
- pKd (HLA-A*69:01 [6]; [26]): ≤ 4.70
- pKd (HLA-B*35:01 [16]; source organism: Influenza A virus(A/swine/Shandong/fZC/2003(H9N2))): 6.53
- pKd (HLA-A*01:01 [7]; [26]): ≤ 4.70
- pKd (HLA-B*15:01 [17]; [27]): 5.22
- pKd (HLA-B*08:01; [27]): 6.73
- pKd (HLA-B*27:05; [26]): ≤ 4.70
- pKd (HLA-B*08:02): ≤ 4.70
- pKd (HLA-B*40:01; [26]): ≤ 4.70
- pKd (HLA-B*46:01; source organism: Influenza A virus H3N2): ≤ 4.70

Sequence: KSVFNSLY
- pKd (HLA-A*01:01 [18]; source organism: Influenza A virus (A/X-31(H3N2))): 5.83

Sequence: LAEQFSGEY
- pKd (HLA-A*11:01; [28]): ≤ 4.70
- pKd (HLA-B*07:02 [3]; [28]): ≤ 4.70
- pKd (HLA-A*26:01 [4]; [28]): ≤ 4.70
- pKd (HLA-A*03:01 [1]; [28]): ≤ 4.70
- pKd (HLA-B*58:01; [28]): ≤ 4.70
- pKd (HLA-A*02:01 [5]; [28]): ≤ 4.70
- pKd (HLA-A*69:01 [6]; [28]): ≤ 4.70
- pKd (HLA-B*35:01 [16]; [28]): 7.78
- pKd (HLA-A*01:01 [7]; [28]): 6.61
- pKd (HLA-B*15:01 [17]; [28]): 6.43
- pKd (HLA-A*24:03 [8]; [28]): ≤ 4.70
- pKd (HLA-B*08:01; [28]): ≤ 4.70
- pKd (HLA-B*27:05; [28]): ≤ 4.70
- pKd (HLA-B*40:01; [28]): ≤ 4.70
- pKd (HLA-A*31:01; [28]): ≤ 4.70

Sequence: LSTASSWSY
- pKd (HLA-A*01:01 [18]; source organism: Influenza A virus (A/swine/Ohio/24366/2007(H1N1))): 6.58

Sequence: SHDTIGPYY
- pKd (HLA-A*11:01; [29]): ≤ 4.70
- pKd (HLA-B*07:02 [3]; [29]): ≤ 4.70
- pKd (HLA-A*26:01 [4]; [29]): ≤ 4.70
- pKd (HLA-A*03:01 [1]; [29]): ≤ 4.70
- pKd (HLA-B*58:01; [29]): ≤ 4.70
- pKd (HLA-A*02:01 [5]; [29]): ≤ 4.70
- pKd (HLA-A*69:01 [6]; [29]): ≤ 4.70
- pKd (HLA-B*35:01 [16]; [29]): 5.32
- pKd (HLA-A*01:01 [7]; [29]): ≤ 4.70
- pKd (HLA-B*15:01 [17]; [29]): ≤ 4.70
- pKd (HLA-B*08:01; [29]): ≤ 4.70
- pKd (HLA-B*27:05; [29]): ≤ 4.70
- pKd (HLA-B*40:01; [29]): 5.53
- pKd (HLA-A*31:01; [29]): ≤ 4.70

Sequence: SPQSLTTKP
- pIC50 (HLA-B*07:02 [19]): ≤ 3.73

Sequence: YIFRNTINM
- pKd (HLA-A*30:01 [20]): 5.75
- pKd (HLA-A*11:01; [30]): 5.11
- pKd (HLA-B*07:02 [3]; [30]): 5.10
- pKd (HLA-A*26:01 [4]; [30]): 6.14
- pKd (HLA-A*03:01 [1]; [30]): ≤ 4.70
- pKd (HLA-B*58:01; [30]): 6.29
- pKd (HLA-C*14:02; [30]): 6.92
- pKd (HLA-A*02:01 [5]; [30]): 6.65
- pKd (HLA-B*44:02; [30]): ≤ 4.70
- pKd (HLA-A*69:01 [6]; [30]): 6.70
- pKd (HLA-B*35:01 [16]; [30]): 7.08
- pKd (HLA-A*01:01 [7]; [30]): ≤ 4.70
- pKd (HLA-B*15:01 [17]; [30]): 6.53
- pKd (HLA-B*08:01; [30]): ≤ 4.70
- pKd (HLA-B*27:05; [30]): ≤ 4.70
- pKd (HLA-B*40:01; [30]): ≤ 4.70
- pKd (HLA-A*31:01; [30]): ≤ 4.70
